Reference: patent US20200283478A1 (Genentech, published 2020)
Bridge positions count the residues as written; N and C are the ends. Square brackets hold non-standard residues; d marks the D form. Ends that are not written are not given here. Trp(6-F) = N[C@@H](Cc1c[nH]c2cc(F)ccc12)C(=O)O; hArg = N=C(N)NCCCC[C@H](N)C(=O)O

B1: Compound 227 (peptide)
peptide: Ac-ESFPGWNLV[hArg]IGLLR-NH2
SMILES: CC[C@H](C)[C@H](NC(=O)[C@H](CCCCNC(=N)N)NC(=O)[C@@H](NC(=O)[C@H](CC(C)C)NC(=O)[C@H](CC(N)=O)NC(=O)[C@H](Cc1c[nH]c2ccccc12)NC(=O)CNC(=O)[C@@H]1CCCN1C(=O)[C@H](Cc1ccccc1)NC(=O)[C@H](CO)NC(=O)[C@H](CCC(=O)O)NC(C)=O)C(C)C)C(=O)NCC(=O)N[C@@H](CC(C)C)C(=O)N[C@@H](CC(C)C)C(=O)N[C@@H](CCCNC(=N)N)C(N)=O
B2: Compound 230 (peptide)
peptide: Ac-DSYPGWNLV[hArg]IGLLR-NH2
SMILES: CC[C@H](C)[C@H](NC(=O)[C@H](CCCCNC(=N)N)NC(=O)[C@@H](NC(=O)[C@H](CC(C)C)NC(=O)[C@H](CC(N)=O)NC(=O)[C@H](Cc1c[nH]c2ccccc12)NC(=O)CNC(=O)[C@@H]1CCCN1C(=O)[C@H](Cc1ccc(O)cc1)NC(=O)[C@H](CO)NC(=O)[C@H](CC(=O)O)NC(C)=O)C(C)C)C(=O)NCC(=O)N[C@@H](CC(C)C)C(=O)N[C@@H](CC(C)C)C(=O)N[C@@H](CCCNC(=N)N)C(N)=O
B3: Compound 236 (peptide)
peptide: WNLV[hArg]IG-NH2
modifications: N-terminus assumed
SMILES: CC[C@H](C)[C@H](NC(=O)[C@H](CCCCNC(=N)N)NC(=O)[C@@H](NC(=O)[C@H](CC(C)C)NC(=O)[C@H](CC(N)=O)NC(=O)[C@@H](N)Cc1c[nH]c2ccccc12)C(C)C)C(=O)NCC(N)=O
notes: also called WNLV(homoR)IG-NH2
B4: SEQ ID NO 342 (peptide)
peptide: TAFTSWEEYLDWVGSGQISYLRNA
modifications: not fully specified; also: Q (1) D-amino acid, place in chain unclear (phage-displayed)
B5: Compound 229 (peptide)
peptide: Ac-MESFPGWNLV[hArg]IGLLR-NH2
SMILES: CC[C@H](C)[C@H](NC(=O)[C@H](CCCCNC(=N)N)NC(=O)[C@@H](NC(=O)[C@H](CC(C)C)NC(=O)[C@H](CC(N)=O)NC(=O)[C@H](Cc1c[nH]c2ccccc12)NC(=O)CNC(=O)[C@@H]1CCCN1C(=O)[C@H](Cc1ccccc1)NC(=O)[C@H](CO)NC(=O)[C@H](CCC(=O)O)NC(=O)[C@H](CCSC)NC(C)=O)C(C)C)C(=O)NCC(=O)N[C@@H](CC(C)C)C(=O)N[C@@H](CC(C)C)C(=O)N[C@@H](CCCNC(=N)N)C(N)=O
B6: Compound 233 (peptide)
peptide: Ac-MESFPGWNLK[hArg]IGLLR-NH2
SMILES: CC[C@H](C)[C@H](NC(=O)[C@H](CCCCNC(=N)N)NC(=O)[C@H](CCCCN)NC(=O)[C@H](CC(C)C)NC(=O)[C@H](CC(N)=O)NC(=O)[C@H](Cc1c[nH]c2ccccc12)NC(=O)CNC(=O)[C@@H]1CCCN1C(=O)[C@H](Cc1ccccc1)NC(=O)[C@H](CO)NC(=O)[C@H](CCC(=O)O)NC(=O)[C@H](CCSC)NC(C)=O)C(=O)NCC(=O)N[C@@H](CC(C)C)C(=O)N[C@@H](CC(C)C)C(=O)N[C@@H](CCCNC(=N)N)C(N)=O
B7: Compound 228 (peptide)
peptide: Ac-SFAFPGWNLV[hArg]IGLLR-NH2
SMILES: CC[C@H](C)[C@H](NC(=O)[C@H](CCCCNC(=N)N)NC(=O)[C@@H](NC(=O)[C@H](CC(C)C)NC(=O)[C@H](CC(N)=O)NC(=O)[C@H](Cc1c[nH]c2ccccc12)NC(=O)CNC(=O)[C@@H]1CCCN1C(=O)[C@H](Cc1ccccc1)NC(=O)[C@H](C)NC(=O)[C@H](Cc1ccccc1)NC(=O)[C@H](CO)NC(C)=O)C(C)C)C(=O)NCC(=O)N[C@@H](CC(C)C)C(=O)N[C@@H](CC(C)C)C(=O)N[C@@H](CCCNC(=N)N)C(N)=O
B8: Compound 232 (peptide)
peptide: Ac-SFAFPGWNLK[hArg]IGLLR-NH2
SMILES: CC[C@H](C)[C@H](NC(=O)[C@H](CCCCNC(=N)N)NC(=O)[C@H](CCCCN)NC(=O)[C@H](CC(C)C)NC(=O)[C@H](CC(N)=O)NC(=O)[C@H](Cc1c[nH]c2ccccc12)NC(=O)CNC(=O)[C@@H]1CCCN1C(=O)[C@H](Cc1ccccc1)NC(=O)[C@H](C)NC(=O)[C@H](Cc1ccccc1)NC(=O)[C@H](CO)NC(C)=O)C(=O)NCC(=O)N[C@@H](CC(C)C)C(=O)N[C@@H](CC(C)C)C(=O)N[C@@H](CCCNC(=N)N)C(N)=O

Assays:
[1] = target: T1, proprotein convertase subtilisin/kexin type 9 (PCSK9) (human, UniProt Q8NBP7 31-692); assay: phage spot ELISA
T1 construct: His-tagged full-length PCSK9 in TR-FRET and SPR, biotinylated in phage ELISA; secreted protein is autoprocessed (prodomain plus catalytic/CRD chain starting at S153); also called rec.PCSK9; His-PCSK9
T1 sequence (Q8NBP7 other isoform, or with tags, fused parts or gaps limits assumed): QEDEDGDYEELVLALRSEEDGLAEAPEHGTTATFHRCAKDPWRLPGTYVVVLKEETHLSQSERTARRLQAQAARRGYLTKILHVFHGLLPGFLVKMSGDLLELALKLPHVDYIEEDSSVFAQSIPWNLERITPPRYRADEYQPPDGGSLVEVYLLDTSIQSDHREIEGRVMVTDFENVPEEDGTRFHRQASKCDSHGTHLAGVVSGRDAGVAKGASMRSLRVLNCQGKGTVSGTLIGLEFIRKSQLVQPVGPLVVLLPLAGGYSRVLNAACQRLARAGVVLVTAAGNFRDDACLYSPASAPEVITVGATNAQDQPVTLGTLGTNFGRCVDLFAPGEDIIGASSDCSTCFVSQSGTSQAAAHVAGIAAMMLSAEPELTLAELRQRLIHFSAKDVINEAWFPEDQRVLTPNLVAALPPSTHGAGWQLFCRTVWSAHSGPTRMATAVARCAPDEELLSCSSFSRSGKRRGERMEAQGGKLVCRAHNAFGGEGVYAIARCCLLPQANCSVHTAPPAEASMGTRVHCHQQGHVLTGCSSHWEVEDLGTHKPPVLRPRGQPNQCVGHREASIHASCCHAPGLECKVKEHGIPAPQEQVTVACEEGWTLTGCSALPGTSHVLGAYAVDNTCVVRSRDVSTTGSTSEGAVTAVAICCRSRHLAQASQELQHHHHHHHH

PCSK9Δhelix = target: T2, PCSK9Δhelix (human, Chemically biotinylated in the phage ELISAs; the site is not given.); assay: phage spot ELISA
T2 construct: construct M1-Q692 with engineered TEV site, cleaved by TEV; also called His-PCSK9Δhelix; open groove PCSK9Δhelix
T2 sequence (prodomain, as listed by the source mutant limits assumed, chain 1 of 2): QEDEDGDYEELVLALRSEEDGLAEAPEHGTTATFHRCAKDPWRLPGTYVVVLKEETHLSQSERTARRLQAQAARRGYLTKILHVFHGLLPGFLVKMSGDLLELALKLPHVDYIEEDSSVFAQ
T2 sequence (chain, as listed by the source mutant limits assumed, chain 2 of 2): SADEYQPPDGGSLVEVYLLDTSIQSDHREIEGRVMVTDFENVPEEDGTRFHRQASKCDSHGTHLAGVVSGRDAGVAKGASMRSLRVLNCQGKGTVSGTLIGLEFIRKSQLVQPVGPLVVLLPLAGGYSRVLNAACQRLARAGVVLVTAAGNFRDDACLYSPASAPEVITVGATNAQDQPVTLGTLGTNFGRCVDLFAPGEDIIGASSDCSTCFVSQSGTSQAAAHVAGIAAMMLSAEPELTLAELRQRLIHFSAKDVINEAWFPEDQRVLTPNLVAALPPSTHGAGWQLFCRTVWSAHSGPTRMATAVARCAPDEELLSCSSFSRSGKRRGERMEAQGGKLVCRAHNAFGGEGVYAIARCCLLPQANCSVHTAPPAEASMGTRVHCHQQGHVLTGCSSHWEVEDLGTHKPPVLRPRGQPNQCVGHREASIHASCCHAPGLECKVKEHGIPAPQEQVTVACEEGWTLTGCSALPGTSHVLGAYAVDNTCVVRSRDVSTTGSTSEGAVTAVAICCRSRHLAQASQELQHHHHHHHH

[2] = target: T3, His-tagged, full-length PCSK9 (human, UniProt Q8NBP7 31-692); assay: TR-FRET competition; His-PCSK9, competitor EGF(A)-Fc
T3 construct: The secreted protein is autocleaved into a prodomain and a catalytic/Cys-rich chain that starts at S153; also called His-PCSK9
T3 sequence (Q8NBP7 other isoform, or with tags, fused parts or gaps limits assumed): as the sequence (Q8NBP7 other isoform, or with tags, fused parts or gaps limits assumed) above
Method: Signal generation in the PCSK9 binding assays was dependent upon the binding interaction to bring into close proximity the His-tag on the PCSK9 and the Fc-tag on the ligand. Anti-His-APC was bound to the His-tag, and anti-Fc-europium was bound to the Fc-tag.
Compounds were solubilized and dilutions were prepared in DMSO. […] The plate was centrifuged to mix the well contents and allowed to incubate for 30 min. […] The normalized TR-FRET ratios were plotted as a function of the compound concentrations, and the IC₅₀ values were determined using a 4-parameter logistic regression.

His-tagged PCSK9Δhelix = target: T4, His-tagged PCSK9Δhelix (human, UniProt Q8NBP7 31-152; Q8NBP7 168-692); assay: TR-FRET competition; His-PCSK9Δhelix, competitor Ab20
T4 construct: Construct M1-Q692 with engineered TEV site, cut by TEV protease; new N-terminus of the catalytic domain is S-A168; also called His-PCSK9Δhelix
T4 sequence (Q8NBP7 31-152, stated change not applied, chain 1 of 2): as the sequence (prodomain, as listed by the source mutant limits assumed, chain 1 of 2) above
T4 sequence (Q8NBP7 other isoform, or with tags, fused parts or gaps mutant, chain 2 of 2): as the sequence (chain, as listed by the source mutant limits assumed, chain 2 of 2) above

Row | Binder | ELISA [1] | s/n ratio [1] | ELISA (PCSK9Δhelix) | s/n ratio (PCSK9Δhelix) | IC50 [2] | IC50 (His-tagged PCSK9Δhelix)
1 | TAFTSWEEYLDWVGSGQTTYLRVSSS [SEQ ID NO 341] | 2.59 | 27 | 2.29 | 24.4 | – | –
2 | TAFTSWEEYLDWVGSGSYRGAWSVFGGSTD [SEQ ID NO 336] | 2.79 | 19.5 | 2.69 | 17.2 | – | –
3 | B1 | – | – | – | – | 2.5 µM | 24 µM
4 | B2 | – | – | – | – | 2.3 µM | 24 µM
5 | Ac-TVFTS[Trp(6-F)]EEYLDWVGSGCRLPWNLQRIGLPC-NH2 (disulfide 17-30 (inferred)) [Compound 241] | – | – | – | – | 1.6 µM | 0.1 µM
6 | B3 | – | – | – | – | ≥ 50 µM | 22 µM
7 | TAFTSWEEYLDWVGSGPRTYLRGLVD [SEQ ID NO 340] | 2.77 | 25.6 | 2.73 | 25.1 | – | –
8 | TAFTSWEEYLDWVGSGQCYPWCRL [SEQ ID NO 338] | 2.71 | 25.1 | 2.65 | 29.2 | – | –
9 | B4 | 2.7 | 22.9 | 2.31 | 22.6 | – | –
10 | WNLV[hArg]IGQR (also: further groups not given here, Structure printed only as a drawing) [Compound 239] | – | – | – | – | 32 µM | 1.2 µM
11 | WNLV[hArg]IGNR (also: further groups not given here, Structure printed only as a drawing) [Compound 240] | – | – | – | – | 31 µM | 0.92 µM
12 | TAFTSWEEYLDWVGSGDCNLWGDDGKYRLCF [SEQ ID NO 333] | 2.72 | 23.6 | 2.81 | 23 | – | –
13 | TAFTSWEEYLDWVGSGGVLGVGGMWIA [SEQ ID NO 335] | 1.45 | 12.8 | 2.61 | 24.4 | – | –
14 | TAFTSWEEYLDWVGSGCWTYLRGGCSVT [SEQ ID NO 339] | 3.07 | 22.1 | 3.05 | 20.2 | – | –
15 | TAFTSWEEYLDWVGSGCVKVGLSWIGDCNS [SEQ ID NO 334] | 2.66 | 23.9 | 2.74 | 25.1 | – | –
16 | TAFTSWEEYLDWVGSGCMEAWQCSLA [SEQ ID NO 337] | 2.73 | 24.6 | – | – | – | –
17 | B5 | – | – | – | – | 0.81 µM | 8.1 µM
18 | B6 | – | – | – | – | 3.1 µM | 50 µM
19 | B7 | – | – | – | – | 1.3 µM | 13 µM
20 | B8 | – | – | – | – | 0.93 µM | 13 µM
